From PMC8933513 (2022) come the findings set out here.

Where “and” joins values, the source holds several entries; their conditions need not be identical. Identical values can stand only once.

The target in experiment [1] is human aminopeptidase N (hAPN) ectodomain, residues 62-963, wild type (UniProt P15144). The experiment is described as follows: SPR. Conditions: parent: 3.71 ± 0.05 µM.
Experiment [2] concerns the target porcine aminopeptidase N ectodomain, wild type (pig) (UniProt P15145). The experiment is described as follows: SPR; hAPN/pAPN WT or mutant immobilised on CM5 chips by amine coupling; serially diluted PDCoV RBD WT or mutant flowed over; BIAcore X-100, room temperature; 0.01 M HEPES, 0.15 M NaCl, 0.5% surfactant P20, 3 mM EDTA, pH 7.4; steady-state affinity model. (In SPR one partner is held on a chip, and binding of the other changes the refractive index at the surface.)

In experiment [3] the target is human aminopeptidase N ectodomain, wild type (human) (UniProt P15144). Described as above.
The target is the same in experiment [4]. The experiment is described as above. This is another data set of the same source.
The target in experiment [5] is porcine aminopeptidase N ectodomain, wild type (pig) (UniProt P15145). Described as above. The source holds these as a separate data set.
Experiment [6] has the same target. The experiment is described as follows: SPR; BIAcore X-100, room temperature; hAPN/pAPN WT or mutant immobilised on CM5 chips via amine coupling; serially diluted PDCoV RBD WT or mutant flowed over in HEPES buffer (0.01 M HEPES, 0.15 M NaCl, 0.5% surfactant P20, 3 mM EDTA, pH 7.4); steady-state affinity model; each of two experiments listed.
Experiment [7] concerns the target human aminopeptidase N ectodomain, wild type (human) (UniProt P15144). The description is as above.
For experiment [8], the target named is porcine aminopeptidase N (pAPN) ectodomain, residues 58-961, wild type (UniProt P15145). Description: SPR. Conditions: parent: 44.24 ± 2.21 µM.
The target in experiment [9] is human aminopeptidase N ectodomain E426A (human) (UniProt P15144). The experiment is described as follows: SPR; hAPN/pAPN WT or mutant immobilised on CM5 chips by amine coupling; serially diluted PDCoV RBD WT or mutant flowed over; BIAcore X-100, room temperature; 0.01 M HEPES, 0.15 M NaCl, 0.5% surfactant P20, 3 mM EDTA, pH 7.4; steady-state affinity model.
The target of experiment [10] is human aminopeptidase N ectodomain Y316A (human) (UniProt P15144). The experiment is described as above.
Experiment [11] deals with human aminopeptidase N ectodomain E745A (human) (UniProt P15144). Described as above.
In experiment [12] the target is human aminopeptidase N ectodomain E742A (human) (UniProt P15144). The experiment is described as above.
For experiment [13], the target named is human aminopeptidase N ectodomain K379A (human) (UniProt P15144). The description is as above.
Experiment [14] concerns the target porcine aminopeptidase N ectodomain W424A (pig) (UniProt P15145). The experiment is described as above.
Experiment [15] has as its target human aminopeptidase N ectodomain W429A (human) (UniProt P15144). Described as above.
Experiment [16] concerns the target porcine aminopeptidase N ectodomain E421A (pig) (UniProt P15145). Described as above.
Experiment [17] addresses human aminopeptidase N ectodomain H789A (human) (UniProt P15144). Described as above.
In experiment [18] the target is hAPN ectodomain Y316A mutant (human) (UniProt P15144). The experiment is described as follows: SPR; BIAcore X-100, room temperature; hAPN/pAPN WT or mutant immobilised on CM5 chips by amine coupling; serially diluted PDCoV RBD WT or mutant flowed over in HEPES buffer (0.01 M HEPES, 0.15 M NaCl, 0.5% surfactant P20, 3 mM EDTA, pH 7.4); steady-state affinity model.
The target of experiment [19] is hAPN ectodomain E742A mutant (human) (UniProt P15144). Described as above.
The target of experiment [20] is porcine aminopeptidase N (pAPN) ectodomain, residues 58-961, wild type (pig) (UniProt P15145). The description is as above.
Experiment [21] has as its target human aminopeptidase N (hAPN) ectodomain, residues 62-963, wild type (UniProt P15144). The description is as above.
The target in experiment [22] is hAPN ectodomain K379A mutant (human) (UniProt P15144). The description is as above.
Chain of hAPN ectodomain K379A mutant (human) (P15144 62-963 K379A): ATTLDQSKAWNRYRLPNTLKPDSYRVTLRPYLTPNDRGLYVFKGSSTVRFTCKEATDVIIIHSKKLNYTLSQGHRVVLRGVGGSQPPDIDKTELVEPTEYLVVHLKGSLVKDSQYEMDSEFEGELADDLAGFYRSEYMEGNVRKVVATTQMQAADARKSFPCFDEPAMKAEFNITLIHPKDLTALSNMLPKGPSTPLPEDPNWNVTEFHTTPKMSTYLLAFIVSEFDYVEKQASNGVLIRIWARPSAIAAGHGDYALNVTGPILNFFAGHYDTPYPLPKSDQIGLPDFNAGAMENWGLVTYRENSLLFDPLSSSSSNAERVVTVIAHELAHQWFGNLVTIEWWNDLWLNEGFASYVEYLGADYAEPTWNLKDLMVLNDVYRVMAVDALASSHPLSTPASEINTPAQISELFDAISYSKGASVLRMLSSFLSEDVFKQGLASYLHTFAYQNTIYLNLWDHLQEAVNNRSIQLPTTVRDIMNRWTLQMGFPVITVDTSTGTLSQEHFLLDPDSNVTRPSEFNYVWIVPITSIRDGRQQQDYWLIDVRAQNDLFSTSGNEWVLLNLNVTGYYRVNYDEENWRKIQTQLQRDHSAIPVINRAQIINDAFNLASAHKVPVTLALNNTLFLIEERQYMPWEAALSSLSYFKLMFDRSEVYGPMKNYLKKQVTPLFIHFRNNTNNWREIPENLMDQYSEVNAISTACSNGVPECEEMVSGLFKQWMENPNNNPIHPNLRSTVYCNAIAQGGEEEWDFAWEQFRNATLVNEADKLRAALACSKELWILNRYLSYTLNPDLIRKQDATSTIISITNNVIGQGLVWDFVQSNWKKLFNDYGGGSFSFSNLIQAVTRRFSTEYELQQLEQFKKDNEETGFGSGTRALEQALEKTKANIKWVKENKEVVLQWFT

Chain of human aminopeptidase N ectodomain, wild type (human) (P15144 62-963): as the sequence (P15144 62-963 K379A) above, with A318K counted along it
Chain of human aminopeptidase N (hAPN) ectodomain, residues 62-963, wild type (P15144 62-963): as the sequence (P15144 62-963 K379A) above, with A318K counted along it
Chain of porcine aminopeptidase N (pAPN) ectodomain, residues 58-961, wild type (P15145 58-961): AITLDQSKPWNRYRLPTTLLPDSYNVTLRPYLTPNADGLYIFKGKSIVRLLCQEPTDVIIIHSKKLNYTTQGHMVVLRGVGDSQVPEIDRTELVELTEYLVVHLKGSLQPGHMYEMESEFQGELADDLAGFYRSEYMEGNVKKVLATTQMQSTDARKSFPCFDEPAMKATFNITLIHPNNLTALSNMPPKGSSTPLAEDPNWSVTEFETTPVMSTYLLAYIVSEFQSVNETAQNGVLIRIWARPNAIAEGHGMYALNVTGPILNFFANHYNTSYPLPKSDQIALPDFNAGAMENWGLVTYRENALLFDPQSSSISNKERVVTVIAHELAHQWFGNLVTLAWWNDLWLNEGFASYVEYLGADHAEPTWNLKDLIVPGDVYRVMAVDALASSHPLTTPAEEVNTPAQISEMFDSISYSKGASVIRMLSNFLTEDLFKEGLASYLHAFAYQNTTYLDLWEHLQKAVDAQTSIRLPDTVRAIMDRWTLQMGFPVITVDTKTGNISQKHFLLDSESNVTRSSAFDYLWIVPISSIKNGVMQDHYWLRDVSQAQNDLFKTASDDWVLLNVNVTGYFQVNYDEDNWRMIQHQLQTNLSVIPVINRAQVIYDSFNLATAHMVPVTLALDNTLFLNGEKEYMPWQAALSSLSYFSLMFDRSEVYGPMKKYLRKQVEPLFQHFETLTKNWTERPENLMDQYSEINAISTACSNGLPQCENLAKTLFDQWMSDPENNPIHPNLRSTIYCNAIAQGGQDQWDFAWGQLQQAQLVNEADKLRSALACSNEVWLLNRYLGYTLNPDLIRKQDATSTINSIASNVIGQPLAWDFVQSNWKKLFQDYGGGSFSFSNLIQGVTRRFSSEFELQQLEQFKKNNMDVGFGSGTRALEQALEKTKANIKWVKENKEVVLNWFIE
Chain of porcine aminopeptidase N ectodomain, wild type (pig) (P15145 58-961): as above
Chain of porcine aminopeptidase N ectodomain E421A (pig) (P15145 58-961 E421A): as the sequence (P15145 58-961) above, with E364A counted along it
Chain of human aminopeptidase N ectodomain E742A (human) (P15144 62-963 E742A): as the sequence (P15144 62-963 K379A) above, with A318K, E681A counted along it
Chain of human aminopeptidase N ectodomain W429A (human) (P15144 62-963 W429A): as the sequence (P15144 62-963 K379A) above, with A318K, W368A counted along it
Chain of human aminopeptidase N ectodomain Y316A (human) (P15144 62-963 Y316A): as the sequence (P15144 62-963 K379A) above, with Y255A, A318K counted along it
Chain of porcine aminopeptidase N ectodomain W424A (pig) (P15145 58-961 W424A): as the sequence (P15145 58-961) above, with W367A counted along it
Chain of human aminopeptidase N ectodomain K379A (human) (P15144 62-963 K379A): as the sequence (P15144 62-963 K379A) above
Chain of human aminopeptidase N ectodomain H789A (human) (P15144 62-963 H789A): as the sequence (P15144 62-963 K379A) above, with A318K, H728A counted along it
Chain of human aminopeptidase N ectodomain E745A (human) (P15144 62-963 E745A): as the sequence (P15144 62-963 K379A) above, with A318K, E684A counted along it
Chain of human aminopeptidase N ectodomain E426A (human) (P15144 62-963 E426A): as the sequence (P15144 62-963 K379A) above, with A318K, E365A counted along it
Chain of hAPN ectodomain E742A mutant (human) (P15144 62-963 E742A): as the sequence (P15144 62-963 K379A) above, with A318K, E681A counted along it
Chain of hAPN ectodomain Y316A mutant (human) (P15144 62-963 Y316A): as the sequence (P15144 62-963 K379A) above, with Y255A, A318K counted along it
Chain of porcine aminopeptidase N (pAPN) ectodomain, residues 58-961, wild type (pig) (P15145 58-961): as the sequence (P15145 58-961) above

As for “PDCoV spike (S) protein receptor binding domain (RBD), residues 300-419, wild type Y398A”, the Kd – broadly, the constant that tells how readily two partners part at equilibrium – in experiment [1] worked out at 520 µM.
Turning to “PDCoV spike protein receptor binding domain W396A (domain or fragment)”, the Kd in [2] is > 1000 µM; in experiment [3], > 1000 µM; in experiment [4], 88000 µM.
For the substance “PDCoV spike protein receptor binding domain E320A (domain or fragment)”, the Kd in experiment [5] is 279 µM and 220 µM; in experiment [4] it was 135 µM and 188 µM.
Turning to “PDCoV spike protein receptor binding domain R322A (domain or fragment)”, the Kd in [5] was 454 µM and 553 µM; in experiment [4] it was 256 µM and 335 µM.
As to PDCoV RBD R322A (domain or fragment), the Kd in experiment [6] was 454 µM and 553 µM; in experiment [7], 256 µM and 335 µM.
As for PDCoV RBD Y398A (domain or fragment), the Kd in experiment [7] was 309 µM and 730 µM.
With PDCoV RBD E320A (domain or fragment), the Kd in [6] was 279 µM and 220 µM; in experiment [7], 135 µM and 188 µM.
For PDCoV RBD F318A (domain or fragment), the Kd in [6] is 817 µM and 511 µM; in experiment [7], 112 µM and 154 µM.
As for “PDCoV spike protein receptor binding domain R357A (domain or fragment)”, the Kd is 27.7 µM and 60.5 µM in [5]; 199 µM and 232 µM in experiment [4].
As to “PDCoV spike (S) protein receptor binding domain (RBD), residues 300-419, wild type R357A”, the Kd in [1] is 216 µM.
For the substance “PDCoV spike (S) protein receptor binding domain (RBD), residues 300-419, wild type F318A”, the Kd in experiment [8] turned out to be 664 µM; in experiment [1], 133 µM.
Regarding “PDCoV spike (S) protein receptor binding domain (RBD), residues 300-419, wild type N397A”, in experiment [1], the Kd was determined as 3.49 µM.
For “PDCoV spike protein receptor binding domain N397A (domain or fragment)”, the Kd in experiment [5] was 34 µM and 53.8 µM; in experiment [4], 3.35 µM and 3.62 µM.
As for PDCoV RBD N397A (domain or fragment), the Kd in experiment [6] is 34 µM and 53.8 µM; in experiment [7], 3.35 µM and 3.62 µM.
For “PDCoV spike protein receptor binding domain Y398A (domain or fragment)”, the Kd in experiment [2] was > 1000 µM; in experiment [4], 309 µM and 730 µM.
Regarding “PDCoV spike (S) protein receptor binding domain (RBD), residues 300-419, wild type R322A”, the Kd in [8] is 504 µM; in experiment [1], 295 µM.
Regarding “PDCoV spike protein receptor binding domain, wild type (domain or fragment)”, the Kd is 305 µM and 362 µM in [9]; 35.7 µM and 38.5 µM in [10]; 3.13 µM and 3 µM in [11]; 14.3 µM and 13.2 µM in [12]; 371 µM and 516 µM in experiment [13]; 113 µM and 119 µM in experiment [14]. In addition, the Kd is 158 µM and 97 µM in [15]; 103 µM and 146 µM in experiment [16]; 6.47 µM and 6.03 µM in [17]; 42 µM and 46.5 µM in experiment [5]; 3.76 µM and 3.66 µM in experiment [4].
On to “PDCoV spike protein receptor binding domain F318A (domain or fragment)”, for which the Kd is 817 µM and 511 µM in experiment [5]; 112 µM and 154 µM in experiment [4].
In the case of “PDCoV spike (S) protein receptor binding domain (RBD), residues 300-419, wild type E320A”, the Kd turned out to be 249 µM in experiment [8] and 161 µM in [1].
Take PDCoV RBD W396A (domain or fragment): the Kd in experiment [7] came to 88000 µM.
“PDCoV spike (S) protein receptor binding domain (RBD), residues 300-419, wild type (domain or fragment)”: the fold decrease in affinity against wild-type hAPN in experiment [18] is 10 fold; in experiment [19] it was 4 fold. For the same substance, the fold lower affinity than to hAPN in [20] is 10 fold. The Kd turned out to be 1 µM in experiment [21] and 100 µM in [22].
PDCoV RBD R357A (domain or fragment): the Kd in experiment [6] is 27.7 µM and 60.5 µM; in experiment [7], 199 µM and 232 µM.
